{"source": "paper PMC10823522", "about": "“Antibodies Raised Against an Aβ Oligomer Mimic Recognize Pathological Features in Alzheimer’s Disease and Associated Amyloid-Disease Brain Tissue” (ACS Central Science, 2023)", "key": {"[1]": {"molecular_target": "2AT-L, covalently stabilized triangular trimer composed of three Aβ17-36 β-hairpin peptides (2AM-LCC)", "assay": "SDS-PAGE; silver stained; Tris buffer at pH 6.8 with 2% (w/v) SDS; 5.0, 2.5, 1.25 and 0.6 μg of 2AT-L or 2AM-L in each lane"}, "[2]": {"molecular_target": "2AT-L, covalently stabilized triangular trimer composed of three Aβ17-36 β-hairpin peptides (2AM-LCC)", "assay": "crystal structure; X-ray crystallographic structure of 2AT-L at 1.8 Å; assembly seen in the crystal lattice"}, "[3]": {"assay": "ThT aggregation assay of Aβ42", "type": "physicochemical", "conditions": "6.25 μM Aβ42 in PBS pH 7.4, 10 μM ThT, 25 °C, quiescent; ex 440 nm, em 485 nm", "experimental": "Figure 3 In vitro characterization of pAb2AT-L with 2AT-L and 2AM-L and Aβ42. (A) Indirect ELISA of pAb2AT-L against 2AT-L, 2AM-L, and BSA. (B) Western blot analysis of pAb2AT-L against a concentration gradient of 2AT-L. SDS-PAGE was performed on a 16.5% Tris-Tricine gel (Bio-Rad); 10 μL was loaded in each lane. (C) Indirect ELISA of pAb2AT-L and 6E10 against Aβ42. (D and E) Western blot analysis of pAb2AT-L (D) and 6E10 (E) against a concentration gradient of Aβ42. SDS-PAGE was performed on a 16.5% Tris-Tricine gel (Bio-Rad); 10 μL was loaded in each lane. (F and G) Dot blot analysis of pAb2AT-L (F) and 4G8 (G) against 6.25 μM Aβ42 aggregated over time in PBS. A 1 μL portion of the Aβ42 solution was spotted in triplicate on 0.2 μm nitrocellulose membranes every 30 min for 5 h and then at 96 h. (H and I) Average integrated spot density from the dot blots in F and G. Integrated density for each spot was determined using ImageJ. (J and K) Change in integrated spot density from the 0-h time point. (L) ThT aggregation assay of 6.25 μM Aβ42. The ThT assay was performed at 25 °C under quiescent conditions in PBS (10 mM Na2HPO4, 1.8 mM KH2PO4, 137 mM NaCl, 2.7 mM KCl) at pH 7.4 containing 10 μM ThT. ThT fluorescence was monitored at 440 nm excitation and 485 nm emission. […]"}, "SDS-PAGE": {"assay": "SDS-PAGE", "type": "physicochemical", "conditions": "Aβ42, 16.5% Tris-Tricine gel, 0.25–0.016 mM, 10 μL per lane"}, "cells": {"system": "cells", "conditions": "cited from earlier work", "source_text": "Like oligomers of full-length Aβ, 2AT-L is toxic toward cells in culture, eliciting toxicity by interacting with the cells and promoting membrane disruption and release of LDH, depleting ATP, and activating caspase-3/7-mediated apoptosis."}, "Aβ and its aggregates": {"system": "Aβ and its aggregates", "conditions": "cited from earlier work", "source_text": "The 6E10 and 4G8 monoclonal antibodies—among the most extensively used Aβ antibodies in Alzheimer’s disease research—were generated by immunizing mice with a peptide fragment that encompassed the N-terminal half of Aβ (Aβ1–24).[58],[59]"}, "[4]": {"system": "Aβ protofibrils in brain and cerebrospinal fluid", "conditions": "Alzheimer's disease transgenic mice; cited from earlier work", "source_text": "Antibodies that target monomeric, oligomeric, and fibrillar forms of the β-amyloid peptide (Aβ) are valuable tools for Alzheimer’s disease research and have emerged as Alzheimer’s disease therapies.[4],[5] […] These antibodies act by binding Aβ aggregates and facilitating their clearance from the brain, mitigating both the direct and downstream damaging eff ..."}}}
{"molecule": "2AT-L, covalently stabilized triangular trimer composed of three Aβ17-36 β-hairpin peptides (2AM-LCC) (complex)", "values": [{"measurement": "stoichiometry N (copies of 2AT-L)", "setting": "[1]", "value": 4}, {"measurement": "stoichiometry N (copies of 2AT-L)", "setting": "[2]", "value": 4}]}
{"molecule": "Aβ42: 42-amino-acid alloform of Aβ", "values": [{"measurement": "time at which ThT-reactive aggregates begin to form", "setting": "[3]", "value": 1, "unit": "h"}, {"measurement": "time at which ThT-reactive aggregates plateau", "setting": "[3]", "value": 1.75, "unit": "h"}, {"measurement": "predominant oligomers on SDS-PAGE", "setting": "SDS-PAGE", "value": "migrate at a molecular weight consistent with a trimer and tetramer"}]}
{"molecule": "full-length Aβ: full-length β-amyloid peptide", "values": [{"measurement": "ATP depletion by full-length Aβ", "setting": "cells", "value": "ATP depletion"}, {"measurement": "LDH release by full-length Aβ", "setting": "cells", "value": "promotes LDH release"}, {"measurement": "caspase-3/7 activation by full-length Aβ", "setting": "cells", "value": "caspase-3/7 activation"}]}
{"molecule": "Lecanemab: anti-Aβ antibody drug (antibody, chains of the INN, looked up, V domains shown) VH: EVQLVESGGGLVQPGGSLRLSCSASGFTFSSFGMHWVRQAPGKGLEWVAYISSGSSTIYYGDTVKGRFTISRDNAKNSLFLQMSSLRAEDTAVYYCAREGGYYYGRSYYTMDYWGQGTTVTVSS VL: DVVMTQSPLSLPVTPGAPASISCRSSQSIVHSNGNTYLEWYLQKPGQSPKLLIYKVSNRFSGVPDRFSGSGSGTDFTLRISRVEAEDVGIYYCFQGSHVPPTFGPGTKLEIK", "values": [{"measurement": "target selectivity of Lecanemab", "setting": "Aβ and its aggregates", "value": "selectively targets Aβ protofibrils"}, {"measurement": "Aβ protofibrils in brain and cerebrospinal fluid", "setting": "[4]", "value": "reduced Aβ protofibrils in the brain and cerebrospinal fluid"}]}
{"molecule": "Donanemab: anti-Aβ antibody drug (antibody, chains of the INN, looked up, V domains shown) VH: QVQLVQSGAEVKKPGSSVKVSCKASGYDFTRYYINWVRQAPGQGLEWMGWINPGSGNTKYNEKFKGRVTITADESTSTAYMELSSLRSEDTAVYYCAREGITVYWGQGTTVTVSS VL: DIVMTQTPLSLSVTPGQPASISCKSSQSLLYSRGKTYLNWLLQKPGQSPQLLIYAVSKLDSGVPDRFSGSGSGTDFTLKISRVEAEDVGVYYCVQGTHYPFTFGQGTKLEIK", "values": [{"measurement": "target of Donanemab", "setting": "Aβ and its aggregates", "value": "targets N-terminally pyroglutamated Aβ that is aggregated in Aβ plaques"}]}
